# Experimental data reported in publication doi:10.1101/743195.
# Molecular target: human low-density lipoprotein (LDL) particles (human)
# Assay: co-sedimentation
percent inhibition of LDL binding against WT [%],percent decrease of LDL binding [%],Substance
> 90,,PCSK9 A44P (from UniProt Q8NBP7) (natural protein)
,> 50,PCSK9 Y38A (from UniProt Q8NBP7) (natural protein)
